Source: paper PMC12507909

Target: basigin (BSG), recombinant extracellular domain Met1-His205 (human)
Test: ELISA; Maxisorp plates coated with 5 μg/mL of each receptor candidate; serial dilutions of PvRBP1a_(158-650)LTID and LTID (48,000 pM to 187.5 pM and 4,000 pM to 1.28 pM) in blocking solution, 16 hours at 4°C; detected with a TurboID-specific antibody; one-site binding saturation model; triplicates

PvRBP1a_(158-650)LTID fusion protein (from UniProt Q5DSE1 158-650) (domain or fragment)
Kd: 2.16 nM
